Laboratory results reported in the supplement of paper PMC10126150.
± gives the standard deviation of the averaged measurements.

Tested on: ATP
Test: switch fluorescence ratio, 500 uM ATP over buffer (Cy3 cluster intensity, sum of 5 cycles each) (fold (ratio)); higher = stronger signal-on switching upon ATP binding; sequences stand for … in TCGTCGGCAGCGTCAGATGTGTATAAGAGACAGTTTTTTTTTTTTTTTTTTTTTTTTT…TC
Details: aptamer strand: ATP DNA aptamer (quencher-CACCTGGGGGAGTATTGCGGAGGAAGG + anchor), 100 nM annealed; ATP concentration: 500 uM
Procedure, shortened: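 Per cluster, summed Cy3 intensity from the target cycles was divided by that from the buffer cycles to give the fluorescence ratio, then averaged per switch-domain sequence. Clusters outside 100-1000 RFU were excluded. The Cy3-labelled switching-strand clusters, on a modified Illumina MiSeq flow-cell, were annealed to 100 nM quencher-labelled ATP aptamer and imaged in selection buffer, then after 15 min with 500 uM ATP at 22 °C, for five cycles with NaOH stripping and re-annealing between them.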
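Further: ATP exposure 15 min at 22 °C before imaging.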

AGGACTCTCA
switch fluorescence ratio: 1.01 ± 0.032

TGGTATAGGT
switch fluorescence ratio: 0.994 ± 0.038

CGCTACGATG
switch fluorescence ratio: 1.082 ± 0.0078

TAAACGGTCA
switch fluorescence ratio: 1.07 ± 0.022

TAGTTTTACC
switch fluorescence ratio: 1 ± 0.013

AATAAGAAAT
switch fluorescence ratio: 0.994 ± 0.015

TTATGAGAGC
switch fluorescence ratio: 0.964 ± 0.022

TTGTTATTGG
switch fluorescence ratio: 0.978 ± 0.038

GCATGGCTGG
switch fluorescence ratio: 1.017 ± 0.00012

ACGGTATTTG
switch fluorescence ratio: 1.13 ± 0.035

ATTACTTACA
switch fluorescence ratio: 1.308 ± 0.0037

TATTCGTGGG
switch fluorescence ratio: 0.956 ± 0.048

TCCCCATGGC
switch fluorescence ratio: 1.35 ± 0.1

TAGAAAAGAG
switch fluorescence ratio: 1.01 ± 0.024

TGTGTCGCGT
switch fluorescence ratio: 0.983 ± 0.02

GCAGGTCGCG
switch fluorescence ratio: 1.01 ± 0.024

AAAAAGGATA
switch fluorescence ratio: 0.9884 ± 0.0013

TTTTAGATTT
switch fluorescence ratio: 0.995 ± 0.026

CTAACAGGGG
switch fluorescence ratio: 1.426 ± 0.0043

GTTGAGTTGA
switch fluorescence ratio: 1.01 ± 0.021

AGGTTTGATC
switch fluorescence ratio: 1.006 ± 0.0096

CAGCGGGGGT
switch fluorescence ratio: 1.03 ± 0.05

AACGAGGCAG
switch fluorescence ratio: 1.21 ± 0.038

AACCGGTATT
switch fluorescence ratio: 0.9752 ± 0.0059

TTCAAGCTGG
switch fluorescence ratio: 1.039 ± 0.0098

CTAGACCCGG
switch fluorescence ratio: 0.988 ± 0.027

TAAGCAAATG
switch fluorescence ratio: 1.038 ± 0.0072

TATGACGACG
switch fluorescence ratio: 1.04 ± 0.045

GACACTATTG
switch fluorescence ratio: 0.999 ± 0.016

TGTGACTAAG
switch fluorescence ratio: 0.9791 ± 0.0015

AACATTGTGG
switch fluorescence ratio: 1.017 ± 0.0063

GGTGATCCTG
switch fluorescence ratio: 0.977 ± 0.028

GGGCATGATG
switch fluorescence ratio: 1.02 ± 0.055

CATTCGCTTT
switch fluorescence ratio: 1.88 ± 0.036

TTCGGTATGT
switch fluorescence ratio: 1.01 ± 0.027

AATAAAAATG
switch fluorescence ratio: 1.02 ± 0.027

TATACGCGCC
switch fluorescence ratio: 1.12 ± 0.083

ACCCAGGGCG
switch fluorescence ratio: 1.44 ± 0.13

AATGGTAGAA
switch fluorescence ratio: 0.986 ± 0.048

TTTGAGTGTA
switch fluorescence ratio: 0.969 ± 0.05

TTGCACGTTT
switch fluorescence ratio: 1.27 ± 0.19

CCGTGATGGG
switch fluorescence ratio: 1.14 ± 0.066

CGATGGGGAC
switch fluorescence ratio: 1.14 ± 0.019

CTGGCACTGG
switch fluorescence ratio: 1.016 ± 0.0056

TTAAGGCACG
switch fluorescence ratio: 0.999 ± 0.017

AAGCATTTGT
switch fluorescence ratio: 0.9976 ± 0.0089

TTTGGGACCT
switch fluorescence ratio: 1 ± 0.048

AAGCTCTTGA
switch fluorescence ratio: 1 ± 0.04

CTTTTACCAA
switch fluorescence ratio: 0.992 ± 0.046

ATGAACATTT
switch fluorescence ratio: 1 ± 0.033

TAGGGGTAGC
switch fluorescence ratio: 0.985 ± 0.04

TGGGTTTGAT
switch fluorescence ratio: 1.01 ± 0.041

AGTTACGCGC
switch fluorescence ratio: 1.04 ± 0.032

ATTATGGTGG
switch fluorescence ratio: 1.16 ± 0.26

GTGTGCTTTG
switch fluorescence ratio: 0.998 ± 0.048

ACCAATTTTG
switch fluorescence ratio: 1.01 ± 0.024

GAGGAAAGCG
switch fluorescence ratio: 1.04 ± 0.089

ATTTAGTACA
switch fluorescence ratio: 0.973 ± 0.011

AAAGCGAAGG
switch fluorescence ratio: 1.01 ± 0.044

CCTGTAAGCT
switch fluorescence ratio: 1.3 ± 0.077

ATTTGCGGGC
switch fluorescence ratio: 1.07 ± 0.11

TTAAGGTCGT
switch fluorescence ratio: 0.995 ± 0.034

TGAATGGGTA
switch fluorescence ratio: 0.983 ± 0.019

GCTATTAAGT
switch fluorescence ratio: 0.9695 ± 0.003

TAAAGTGTGC
switch fluorescence ratio: 0.9727 ± 0.0042

GGTGACGGGC
switch fluorescence ratio: 0.978 ± 0.045

AGAAGATCAG
switch fluorescence ratio: 1.02 ± 0.015

TTCTGGCATG
switch fluorescence ratio: 1.09 ± 0.099

ATCTTAGGGT
switch fluorescence ratio: 0.978 ± 0.039

CGGTCCACGA
switch fluorescence ratio: 1.022 ± 0.0017

TGATTATGTT
switch fluorescence ratio: 1.04 ± 0.035

AACGTTCGCG
switch fluorescence ratio: 1.03 ± 0.032

CGGCGTACAT
switch fluorescence ratio: 1.04 ± 0.02

AAGTGGATTG
switch fluorescence ratio: 1.003 ± 0.01

TTCGGGGTGG
switch fluorescence ratio: 0.9976 ± 0.0066

ACTTTCTCAG
switch fluorescence ratio: 1.077 ± 0.0049

GGTGCCGGGG
switch fluorescence ratio: 1.02 ± 0.042

CGTTGGGGGC
switch fluorescence ratio: 0.998 ± 0.087

TCCGAGGGAG
switch fluorescence ratio: 1.05 ± 0.079

CAGTACTCTG
switch fluorescence ratio: 0.986 ± 0.031

AGGGCGTCTC
switch fluorescence ratio: 0.981 ± 0.043

TCGCGGCAGT
switch fluorescence ratio: 1.04 ± 0.015

GGTTGAGTGG
switch fluorescence ratio: 1 ± 0.036

CTGGGGCGCT
switch fluorescence ratio: 1.028 ± 0.0032

GACCTGAGCA
switch fluorescence ratio: 1.113 ± 0.0034

CGTTCTGAAT
switch fluorescence ratio: 0.9901 ± 0.0086

TAGAAATGCG
switch fluorescence ratio: 1.038 ± 0.0038

AGATCTACAT
switch fluorescence ratio: 1.01 ± 0.016

ATAGGTTTGT
switch fluorescence ratio: 0.989 ± 0.013

TAAGTGGG
switch fluorescence ratio: 0.9621 ± 0.0055

AGAGATGAGG
switch fluorescence ratio: 0.974 ± 0.042

CGCGGTTAAA
switch fluorescence ratio: 1.18 ± 0.19

GTTGAAGGCA
switch fluorescence ratio: 1.01 ± 0.022

TAGGCTGGGG
switch fluorescence ratio: 0.998 ± 0.023

ATAGAAGCGG
switch fluorescence ratio: 0.9684 ± 0.0029

TATTAGGTAT
switch fluorescence ratio: 0.961 ± 0.018

AACAATGCTA
switch fluorescence ratio: 1.05 ± 0.026

TGATGCTTTT
switch fluorescence ratio: 1.01 ± 0.035

GTTGGGGCTC
switch fluorescence ratio: 1.01 ± 0.04

AATATTTTCG
switch fluorescence ratio: 0.998 ± 0.038

CCGGGCGGGG
switch fluorescence ratio: 1.07 ± 0.018

TGATTCTTAT
switch fluorescence ratio: 0.97 ± 0.014

ATATGTATGA
switch fluorescence ratio: 1.003 ± 0.0037

ACTTGATACG
switch fluorescence ratio: 1.08 ± 0.063

AGCAGGTGGC
switch fluorescence ratio: 1.13 ± 0.045

TCGGGTTTGG
switch fluorescence ratio: 1.01 ± 0.041

TTTAATCTG
switch fluorescence ratio: 0.962 ± 0.021

TCGTGCTGCG
switch fluorescence ratio: 1.0004 ± 0.00051

GGAGGAACAT
switch fluorescence ratio: 1.02 ± 0.016

AAGGGGTTTT
switch fluorescence ratio: 1 ± 0.036

GGCGGGGGCT
switch fluorescence ratio: 0.99 ± 0.018

ACTAGGGGAC
switch fluorescence ratio: 1.06 ± 0.085

TTGGTTCAGC
switch fluorescence ratio: 1.05 ± 0.028

GCGTCTTTAC
switch fluorescence ratio: 1.13 ± 0.024

AGACAGGGGT
switch fluorescence ratio: 1.07 ± 0.098

TATTATATGG
switch fluorescence ratio: 1.03 ± 0.027

TGGTGGAGGT
switch fluorescence ratio: 0.977 ± 0.011

AAGGAGGATG
switch fluorescence ratio: 0.995 ± 0.042

GAGAGAGGCT
switch fluorescence ratio: 0.9988 ± 0.0071

TTTGGCAGGG
switch fluorescence ratio: 0.996 ± 0.024

AGGAGCAAGG
switch fluorescence ratio: 1.26 ± 0.072

CGTGATATAG
switch fluorescence ratio: 1.02 ± 0.026

AGGTTAAGTT
switch fluorescence ratio: 0.989 ± 0.021

GATCGGGCCG
switch fluorescence ratio: 0.975 ± 0.052

ATAGTCAAAC
switch fluorescence ratio: 1.027 ± 0.0025

TTCGGTGGTT
switch fluorescence ratio: 1.08 ± 0.076

ACATCGGGCT
switch fluorescence ratio: 1.02 ± 0.027

TGTAGTATTT
switch fluorescence ratio: 1 ± 0.013

AAAGAGACGC
switch fluorescence ratio: 1.03 ± 0.068

CGGCTGTGCT
switch fluorescence ratio: 1 ± 0.022

GGGTTCTTAT
switch fluorescence ratio: 0.992 ± 0.027

AAAACACGCT
switch fluorescence ratio: 1.18 ± 0.2

CAGACGGAGT
switch fluorescence ratio: 1.039 ± 0.01

TTTTAAATAG
switch fluorescence ratio: 1.01 ± 0.024

TAGCAATTAG
switch fluorescence ratio: 2.45 ± 0.031

ACAATTGGAG
switch fluorescence ratio: 0.9969 ± 0.0044

TGGATAAGTT
switch fluorescence ratio: 1.03 ± 0.025

TATTAACTAG
switch fluorescence ratio: 1.02 ± 0.0022

CACAGTTTGC
switch fluorescence ratio: 1.02 ± 0.026

AGATTCGTCA
switch fluorescence ratio: 0.988 ± 0.018

GATTGGGGCA
switch fluorescence ratio: 1.02 ± 0.046

CGGTTATCGC
switch fluorescence ratio: 1.03 ± 0.052

GACGAGGAGG
switch fluorescence ratio: 1 ± 0.017

TGATGGCTGC
switch fluorescence ratio: 1.04 ± 0.013

CCGCGCCGAT
switch fluorescence ratio: 1.37 ± 0.16

TATGGTGTTT
switch fluorescence ratio: 1.02 ± 0.036

GGGGTGTACA
switch fluorescence ratio: 0.969 ± 0.027

TCAGGGAGTA
switch fluorescence ratio: 1.04 ± 0.053

GAGTACGAGT
switch fluorescence ratio: 1.0098 ± 0.001

CAACGCATTT
switch fluorescence ratio: 2.36 ± 0.44

AGGGTATTAG
switch fluorescence ratio: 0.995 ± 0.025

CGGCTTTTGG
switch fluorescence ratio: 0.9617 ± 0.0084

AGCACCGGGT
switch fluorescence ratio: 1.02 ± 0.018
